This is an account of results in patent publication US8969053B2, “Mutant YqhD enzyme for the production of a biochemical by fermentation” (Metabolic Explorer, priority 2009, dated 2015).

Broadly, the Ki is a measure of affinity in units of concentration, obtained from inhibition or displacement. Usually Km stands for the substrate concentration at which the rate is half of its maximum. As a reminder, the kcat is the number of substrate molecules converted per active site and unit of time at saturation. Usually kcat/Km stands for the second-order rate constant that governs catalysis at low substrate concentration.

Substitutions are numbered along the chain they refer to. Names and notes keep the numbering of the source. Values joined by “and” are separate entries in the source; they are usually repeats but may differ in a detail not shown here. Equal entries are not always repeated.

Data set [1] deals with T1, Escherichia coli MG1655 YqhD, native (wild type), SEQ ID NO: 56 (Escherichia coli, UniProt Q46856).
T1 construct: made in house; host or cells: E. coli MG1655 ΔyqhD::Km carrying pTRC99A-yqhD
T1 sequence (Q46856 1-387): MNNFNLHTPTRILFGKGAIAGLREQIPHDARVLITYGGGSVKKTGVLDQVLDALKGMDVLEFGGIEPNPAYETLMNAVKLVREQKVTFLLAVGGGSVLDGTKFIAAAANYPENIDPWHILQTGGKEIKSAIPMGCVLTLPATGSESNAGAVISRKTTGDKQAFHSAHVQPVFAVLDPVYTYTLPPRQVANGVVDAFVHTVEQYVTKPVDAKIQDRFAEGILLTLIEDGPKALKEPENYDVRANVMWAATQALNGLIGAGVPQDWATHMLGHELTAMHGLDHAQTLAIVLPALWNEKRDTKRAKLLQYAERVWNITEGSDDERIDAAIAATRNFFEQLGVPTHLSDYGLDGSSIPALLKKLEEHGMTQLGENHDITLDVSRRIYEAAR
Put plainly: inhibition by NADP+, native YqhD. The data set is classed as biochemical, E. coli. The protocol: (§1) Methylglyoxal reductase activity was assayed by measuring the initial rate of NADPH oxidation with a spectrophotometer at a wavelength of 340 nm and at a constant temperature of 37° C. The reaction mixture using methylglyoxal as substrate was carried out in 20 mM Hepes pH 7.5, 0.1 mM Zinc sulphate, 0.2 mM NADPH, 0.6 μg of purified enzyme in a final volume of 1 ml. The reaction mixture was incubated for 5 min at 37° C. and then the reaction was initiated by the addition of the substrate methylglyoxal at a final concentration of 10 mM. Control assay (blank), lacking the substrate was run in parallel and the value measured for the control was subtracted to the value measured for the assay to take into account non-specific oxidation of NADPH.
(§2) The NADP+ inhibition constant for three purified enzymes (yqhD, yqhD*(G149E) and yqhD*(G149S A286T)) were determined in the conditions described for the activity assay, excepted for the concentration of methylglyoxal that was increased to 20 mM. […] Five concentrations of the inhibitor NADP+ were used (0-0.05-0.1-0.2-0.5 mM) and the kinetics were recorded for each condition of inhibition. The NADP+ inhibition constant (Ki) of each protein was determined with the module enzyme kinetic from the software Sigma Plot (Systat Software Inc, San Jose, Calif.). […]

Data set [2] deals with T2, E. coli YqhD variant YqhD*(G149E) (Escherichia coli, UniProt Q46856, G149E).
T2 construct: made in house; host or cells: E. coli MG1655 ΔyqhD::Km carrying pTRC99A-yqhD*(G149E)
T2 sequence (Q46856 1-387 G149E): T1 sequence (Q46856 1-387) with G149E
The experiment in a line: inhibition by NADP+, YqhD*(G149E). It is filed as biochemical. As for the experimental part:
as §1, §2

The target in data set [3] is T3, E. coli YqhD variant YqhD*(G149S A286T) (Escherichia coli, UniProt Q46856, A286T/G149S).
T3 construct: made in house; host or cells: E. coli MG1655 ΔyqhD::Km carrying pTRC99A-yqhD*(G149S)(A286T)
T3 sequence (Q46856 1-387 G149S/A286T): T1 sequence (Q46856 1-387) with G149S, A286T
The experiment in a line: inhibition by NADP+, YqhD*(G149S A286T). The data set is classed as biochemical. The protocol: as §1, §2

The subject of the next data set is YqhD (purified). The conditions noted are these: furfural reductase study, Miller et al (2009); read-out: Km value for NADPH; cited from earlier work.
Data set [4] has as its system YqhD double mutant D99Q N147H. The conditions noted are these: versus parent YqhD, Li et al, 2008; cited from earlier work.
Another data set deals with YqhD single mutant Q202A. As to conditions: versus parent YqhD, Li et al, 2008; cited from earlier work.
A short description of data set [5]: Methylglyoxal reductase activity assay, kinetics of purified YqhD enzymes toward methylglyoxal. It is filed as biochemical, E. coli. The conditions noted are these: for Kinetic parameters (Km, kcat, kcat/Km) compared to the native protein / Specific activity compared to that of YqhD: in words. As for the experimental part: as §1
(§3) One unit of enzyme activity was defined as the amount of enzyme that consumed 1 μmol substrate per minute under the conditions of the assay. Specific enzyme activity was expressed as units per mg of protein.
Kinetic constants (Km, kcat and kcat/Km) for the four purified enzymes (yqhD, yqhD*(G149E), yqhD*(G149S) and yqhD*(G149S A286T)) toward methylglyoxal were determined using the activity assay previously described. In this case the reaction was started by addition of the purified enzyme. Seven methylglyoxal concentrations between 1.3 mM and 30 mM were analysed for each enzyme. For all kinetics, initial velocity was determined in triplicate for all substrate concentrations.
Kinetic constants (Km and Vmax) of each protein were determined with the module enzyme kinetics from the software Sigma Plot (Systat Software Inc, San Jose, Calif.). […] The different kinetic parameters of four YqhD enzymes were compiled in Table 6.

The nature of data set [6]: Methylglyoxal reductase activity assay, kinetics of purified YqhD enzymes toward co-factor NADPH. The data set is classed as biochemical, E. coli. As for the experimental part:
as §1, §3
Kinetic constants (Km, kcat and kcat/Km) for the four purified enzymes (yqhD, yqhD*(G149E), yqhD*(G149S) and yqhD*(G149S A286T)) toward methylglyoxal were determined using the activity assay previously described. In this case the reaction was started by addition of the purified enzyme. Nine NADPH concentrations between 6 μM and 300 μM were analysed for each enzyme. For all kinetics, initial velocity was determined in triplicate for all co-factor concentrations.
Kinetic constants (Km and Vmax) of each protein were determined with the module enzyme kinetics from the software Sigma Plot (Systat Software Inc, San Jose, Calif.). […] The different kinetic parameters of four YqhD enzymes were compiled in Table 7.

The nature of data set [7]: Inhibition of the YqhD enzymes by NADP+ (competitive inhibition model). The data set is classed as biochemical, E. coli. As to conditions: NADP+ inhibition experiment, 20 mM methylglyoxal. The protocol: as §1
The NADP+ inhibition constant for three purified enzymes (yqhD, yqhD*(G149E) and yqhD*(G149S A286T)) were determined in the conditions described for the activity assay, excepted for the concentration of methylglyoxal that was increased to 20 mM. Enzyme kinetics with regards to NADPH were realised with increasing concentration of NADPH between 50 and 200 μM. Five concentrations of the inhibitor NADP+ were used (0-0.05-0.1-0.2-0.5 mM) and the kinetics were recorded for each condition of inhibition. The NADP+ inhibition constant (Ki) of each protein was determined with the module enzyme kinetic from the software Sigma Plot (Systat Software Inc, San Jose, Calif.). A model of competitive inhibition was fitted by the software.

Substrate in data set [8]: CC(=O)C=O
The experiment in a line: purified protein, by the assay type. The conditions noted are these: other: methylglyoxal 1.3-30 mM, 0.2 mM NADPH, pH 7.5, 37° C.

Substrate in data set [9]: NC(=O)C1=CN([C@@H]2O[C@H](COP(=O)(O)OP(=O)(O)OC[C@H]3O[C@@H](n4cnc5c(N)ncnc54)[C@H](OP(=O)(O)O)[C@@H]3O)[C@@H](O)[C@H]2O)C=CC1
Put plainly: purified protein, by the assay type. The conditions noted are these: other: NADPH 6-300 μM, 10 mM methylglyoxal, pH 7.5, 37° C.

As for `NC(=O)c1ccc[n+]([C@@H]2O[C@H](COP(=O)([O-])OP(=O)(O)OC[C@H]3O[C@@H](n4cnc5c(N)ncnc54)[C@H](OP(=O)(O)O)[C@@H]3O)[C@@H](O)[C@H]2O)c1` [NADP+], the inhibition constant Ki is 68 µM in data set [1], 28 ± 5 µM in data set [2] and 16 ± 2.5 µM in [3].
In the case of `NC(=O)C1=CN([C@@H]2O[C@H](COP(=O)(O)OP(=O)(O)OC[C@H]3O[C@@H](n4cnc5c(N)ncnc54)[C@H](OP(=O)(O)O)[C@@H]3O)[C@@H](O)[C@H]2O)C=CC1` [NADPH], the Km in the data set with YqhD (purified) was 8 µM.
Take `O=CCCO` [3-HPA, 3-hydroxypropionaldehyde]: in data set [4], the “affinity (Km) for 3-HPA” value is given as “improved affinity (lower Km)” and the “catalytic efficiency (Kcat/Km) for 3-HPA” value was “improved catalytic efficiency”. Also, in the data set with YqhD single mutant Q202A, the “affinity (Km) for 3-HPA” value was “improved affinity (lower Km)” and the “catalytic efficiency (Kcat/Km) for 3-HPA” value is on record as “improved catalytic efficiency”.

B1: E. coli YqhD variant YqhD*(G149S A286T) (Escherichia coli K-12; A286T/G149S) (protein)
chain: T1 sequence (Q46856 1-387) with G149S, A286T
Turning to B1, in data set [5], the Specific activity is 2.69 ± 0.10 µmol/min/mg; the “Specific activity as share of the specific activity of YqhD” value is 69%; the “Kinetic parameters (Km, kcat, kcat/Km) compared to the native protein” value is on record as “identical to the native protein”. The molecule also came in with a Specific activity in data set [6] of 3.17 ± 0.02 µmol/min/mg. In data set [7], this molecule showed a Specific activity of 5.25 ± 0.183 µmol/min/mg. Moreover, in [8], the Km was found to be 3280 ± 380 µM, the kcat is 1.89 ± 0.07 s⁻¹ and the kcat/Km was determined as 577 ± 88 M⁻¹ s⁻¹. For the same molecule, in data set [9], the Michaelis-Menten constant (Km) was found to be 20 ± 2.2 µM; the catalytic constant (kcat) was 2.2 ± 0.1 s⁻¹; the specificity constant (kcat/Km) is 1.22 E+05 M−1s−1 and 1.13E+05 ± 1.3E+04 M−1s−1.

B2: E. coli YqhD variant YqhD*(G149E) (Escherichia coli K-12; G149E) (protein)
chain: T1 sequence (Q46856 1-387) with G149E
On to B2, for which, in data set [5], the Specific activity came to 7.65 ± 0.31 µmol/min/mg and the “Specific activity compared to that of YqhD” value was “almost doubled”. In data set [6], this molecule returned a Specific activity of 4.86 ± 0.08 µmol/min/mg. In addition, in [7], the Specific activity was 5.53 ± 0.292 µmol/min/mg. Besides, in [8], the Km is 7800 ± 790 µM, the kcat worked out at 5.38 ± 0.21 s⁻¹ and the catalytic efficiency (kcat/Km) turned out to be 689 ± 98 M⁻¹ s⁻¹. In [9], the Michaelis-Menten constant (Km) was 28 ± 1.8 µM, the turnover number (kcat) was found to be 3.4 ± 0.1 s⁻¹ and the kcat/Km stood at 122000 ± 9800 M⁻¹ s⁻¹.

B3: Escherichia coli MG1655 YqhD, native (wild type), SEQ ID NO: 56 (Escherichia coli K-12) (protein)
chain: T1 sequence (Q46856 1-387)
As to B3, the Specific activity in data set [5] is 3.91 ± 0.11 µmol/min/mg; in data set [6] it was 2.99 ± 0.1 µmol/min/mg; in [7] it was 3.63 ± 0.284 µmol/min/mg. In addition, the Km in data set [8] was 4810 ± 410 µM; in [9] it was 32 ± 4.2 µM. The catalytic constant (kcat) in data set [8] came out at 2.74 ± 0.08 s⁻¹; in data set [9] it was 2.1 ± 0.1 s⁻¹. Besides, the values for the kcat/Km in data set [8] and in [9] were 570 ± 65 M⁻¹ s⁻¹ and 66000 ± 11000 M⁻¹ s⁻¹, respectively.

B4: E. coli YqhD variant YqhD*(G149S) (Escherichia coli K-12; G149S) (protein)
chain: T1 sequence (Q46856 1-387) with G149S
Consider B4, for which, in [5], the Specific activity is 3.80 ± 0.12 µmol/min/mg; the “Kinetic parameters (Km, kcat, kcat/Km) compared to the native protein” value is reported as “identical to the native protein”; the “Specific activity compared to that of YqhD” value is recorded as “similar”. This molecule returned a Specific activity in data set [6] of 3.78 ± 0.15 µmol/min/mg. In addition, in data set [8], the Km was found to be 3370 ± 340 µM, the kcat worked out at 2.67 ± 0.09 s⁻¹ and the catalytic efficiency (kcat/Km) is 792 ± 105 M⁻¹ s⁻¹. Further, in data set [9], the Michaelis-Menten constant (Km) stood at 22 ± 3.7 µM, the kcat is 2.7 ± 0.1 s⁻¹ and the kcat/Km was 122000 ± 25000 M⁻¹ s⁻¹.
